Consider three molecules from patent US20250230251A1 (Bristol-Myers Squibb, published 2025).

In test [1] the target is T1, cyIL-18Rβ-HisAvi (cynomolgus monkey).
T1 construct: Soluble analyte in SPR; also called cyno IL-18Rβ; cynomolgus monkey IL-18Rβ
T1 chain: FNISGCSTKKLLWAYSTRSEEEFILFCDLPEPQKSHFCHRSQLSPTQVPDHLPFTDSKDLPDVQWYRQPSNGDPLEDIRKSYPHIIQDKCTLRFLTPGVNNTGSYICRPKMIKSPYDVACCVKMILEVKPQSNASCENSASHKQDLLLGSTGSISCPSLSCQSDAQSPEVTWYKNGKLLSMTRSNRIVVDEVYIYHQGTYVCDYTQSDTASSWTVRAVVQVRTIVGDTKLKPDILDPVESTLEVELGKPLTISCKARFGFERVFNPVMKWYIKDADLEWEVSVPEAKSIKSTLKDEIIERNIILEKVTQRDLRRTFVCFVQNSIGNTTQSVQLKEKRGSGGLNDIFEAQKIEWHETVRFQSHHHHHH
The experiment in a line: SPR T200, mAb on anti-hFc, 37C, pH 6.

The target of test [2] is T2, huIL-18Rβ-HisAvi (human, UniProt O95256 20-356, biotinylated in the Octet blocking assay).
T2 construct: Soluble analyte in all SPR runs; captured on streptavidin sensors in the Octet assay; also called human IL-18Rβ; human IL-18Rβ-Avi-His
T2 sequence: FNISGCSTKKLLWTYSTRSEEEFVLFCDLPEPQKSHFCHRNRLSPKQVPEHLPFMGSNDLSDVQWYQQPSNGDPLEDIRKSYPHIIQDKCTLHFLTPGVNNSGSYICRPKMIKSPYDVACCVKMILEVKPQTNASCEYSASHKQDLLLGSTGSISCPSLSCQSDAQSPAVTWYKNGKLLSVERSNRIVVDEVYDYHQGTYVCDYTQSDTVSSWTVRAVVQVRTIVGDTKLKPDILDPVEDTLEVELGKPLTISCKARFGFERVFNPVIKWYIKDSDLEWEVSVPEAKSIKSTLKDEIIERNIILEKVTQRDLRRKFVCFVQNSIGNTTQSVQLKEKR
As to the kind of experiment: SPR T200, mAb on anti-hFc, 37C, pH 6.

Test [3] addresses T1, cyIL-18Rβ-HisAvi. As to the kind of experiment: SPR T200, mAb on anti-hFc, 37C, pH 7.4.
In test [4] the target is T2, huIL-18Rβ-HisAvi. The experiment in a line: SPR T200, mAb on anti-hFc, 37C, pH 7.4.
For the next test, the target named is T3, human IL-18Rβ on cells (human, UniProt O95256 20-599).
T3 sequence: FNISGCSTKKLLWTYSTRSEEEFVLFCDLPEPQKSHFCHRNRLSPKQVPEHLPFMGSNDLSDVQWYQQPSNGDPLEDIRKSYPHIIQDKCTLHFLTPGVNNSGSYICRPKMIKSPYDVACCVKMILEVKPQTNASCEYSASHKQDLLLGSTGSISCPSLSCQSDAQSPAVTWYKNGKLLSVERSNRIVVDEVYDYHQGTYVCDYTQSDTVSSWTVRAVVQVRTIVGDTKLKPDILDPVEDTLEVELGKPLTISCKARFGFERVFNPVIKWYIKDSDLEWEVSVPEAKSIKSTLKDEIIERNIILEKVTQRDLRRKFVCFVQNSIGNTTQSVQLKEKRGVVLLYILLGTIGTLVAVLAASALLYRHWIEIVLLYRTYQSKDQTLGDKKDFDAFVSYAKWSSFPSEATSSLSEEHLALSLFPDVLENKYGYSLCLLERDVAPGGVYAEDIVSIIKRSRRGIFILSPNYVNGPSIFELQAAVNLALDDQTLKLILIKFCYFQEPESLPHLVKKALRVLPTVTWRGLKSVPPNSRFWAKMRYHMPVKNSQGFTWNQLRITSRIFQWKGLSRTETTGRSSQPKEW
As to the kind of experiment: cell-based or functional assay.

Test [5] concerns the target T2, huIL-18Rβ-HisAvi. As to the kind of experiment: SPR T200, pH 7; sample 4 w 4C.
For test [6], the target named is T2, huIL-18Rβ-HisAvi. As to the kind of experiment: SPR T200, pH 7; sample 2 w 40C.
Test [7] addresses T2, huIL-18Rβ-HisAvi. The experiment in a line: SPR T200, pH 7; sample T0.
The target of test [8] is T2, huIL-18Rβ-HisAvi. The experiment in a line: SPR T200, pH 7; sample 4 w 40C.

B1: P20-V2 (antibody, human IgG1, kappa, V domains shown)
VH: QVQLQESGPGLVKPSETLSLTCTVSGGSINNYYWSWIRQPPGKGLEWIGYIFYSGTTNYNPSLKSRVTISVDTSKNQFSLKLSSVTAADTAVYYCARDVGIAARNSYYYVMDVWGQGTTVTVSS
VL: AIQLTQSPSSLSASVGDRVTITCRASQGISSALAWYQQKPGKAPKFLIYEGSSLESGVPSRFSGSGSGTDFTLTISSLQPEDFATYYCQQFNSYPITFGQGTRLEIKR
notes: Variant of P20
As to B1, the Kd came out at 1.4 nM with cyIL-18Rβ-HisAvi [1], 0.29 nM in the test with huIL-18Rβ-HisAvi [2], 0.92 nM with cyIL-18Rβ-HisAvi [3] and 0.24 nM in the test with huIL-18Rβ-HisAvi [4]. In addition, the koff with cyIL-18Rβ-HisAvi [1] stood at 0.00023 s⁻¹; in the test with huIL-18Rβ-HisAvi [2], 0.00013 s⁻¹; with cyIL-18Rβ-HisAvi [3], 0.00016 s⁻¹; in the test with huIL-18Rβ-HisAvi [4] it was 8.9e-05 s⁻¹. Also, the kon was determined as 160000 M⁻¹ s⁻¹ with cyIL-18Rβ-HisAvi [1], 440000 M⁻¹ s⁻¹ with huIL-18Rβ-HisAvi [2], 180000 M⁻¹ s⁻¹ with cyIL-18Rβ-HisAvi [3] and 360000 M⁻¹ s⁻¹ with huIL-18Rβ-HisAvi [4]. In the test with human IL-18Rβ on cells, the “Average IC50, LPS+IL-12 dependent IFNg production, human whole blood” value (“Average IC50” below) amounted to 0.37 nM.

B2: P21-V1 (antibody, human IgG1, kappa, V domains shown)
VH: QVQLQESGPGLVKPSETLSLTCTVSGGSISNYYWTWIRQPPGKGLEWIGYISDSGSTNYNPSLKSRVTISVDTSKNQFSLKLSSVTAADTAVYYCARETIVVRGFYFYVMDVWGQGTTVTVSS
VL: AIQLTQSPSSLSASVGDRVTITCRASQGISSALAWYQQKPGKAPKLLIYEASNWESGVPSRFSGSGSGTDFTLTISSLQPEDFATYYCQQFNSYPWTFGQGTKVEIKR
notes: Variant of P21
Take B2: the dissociation constant Kd with huIL-18Rβ-HisAvi [5] is 0.24 nM; with cyIL-18Rβ-HisAvi [1], 13 nM; in the test with huIL-18Rβ-HisAvi [2] it was 0.37 nM; in the test with huIL-18Rβ-HisAvi [6], 0.18 nM; in the test with huIL-18Rβ-HisAvi [7], 0.26 nM; with huIL-18Rβ-HisAvi [8] it was 0.51 nM. Besides, the Kd with cyIL-18Rβ-HisAvi [3] was found to be 8.7 nM; in the test with huIL-18Rβ-HisAvi [4], 0.63 nM. Besides, the koff with huIL-18Rβ-HisAvi [5] turned out to be 6.5e-05 s⁻¹; with cyIL-18Rβ-HisAvi [1] it was 0.0031 s⁻¹; with huIL-18Rβ-HisAvi [2], 0.00017 s⁻¹; in the test with huIL-18Rβ-HisAvi [6] it was 4.9e-05 s⁻¹; with huIL-18Rβ-HisAvi [7], 7.2e-05 s⁻¹; with huIL-18Rβ-HisAvi [8], 0.00014 s⁻¹. In addition, the koff with cyIL-18Rβ-HisAvi [3] stood at 0.0047 s⁻¹; in the test with huIL-18Rβ-HisAvi [4] it was 0.00022 s⁻¹. Moreover, the kon amounted to 270000 M⁻¹ s⁻¹ with huIL-18Rβ-HisAvi [5]; 250000 M⁻¹ s⁻¹ in the test with cyIL-18Rβ-HisAvi [1]; 460000 M⁻¹ s⁻¹ with huIL-18Rβ-HisAvi [2]; 270000 M⁻¹ s⁻¹ in the test with huIL-18Rβ-HisAvi [6]; 270000 M⁻¹ s⁻¹ with huIL-18Rβ-HisAvi [7]; 280000 M⁻¹ s⁻¹ with huIL-18Rβ-HisAvi [8]. Besides, the kon was 540000 M⁻¹ s⁻¹ in the test with cyIL-18Rβ-HisAvi [3] and 360000 M⁻¹ s⁻¹ with huIL-18Rβ-HisAvi [4]. Further, in the test with human IL-18Rβ on cells, the “Average IC50” value was determined as 1.23 nM.

B3: P20-V3 (antibody, human IgG1, kappa, V domains shown)
VH: QVQLQESGPGLVKPSETLSLTCTVSGGSINNYYWSWIRQPPGKGLEWIGYIFYSGTTNYNPSLKSRVTISVDTSKNQFSLKLSSVTAADTAVYYCARDVGIAARNSYYYVMDVWGQGTTVTVSS
VL: AIQLTQSPSSLSASVGDRVTITCRASQGISSALAWYQQKPGKAPKFLIYGASSLESGVPSRFSGSGSGTDFTLTISSLQPEDFATYYCQQFNSYPITFGQGTRLEIKR
notes: Variant of P20
In the case of B3, the Kd worked out at 2.4 nM in the test with cyIL-18Rβ-HisAvi [1], 0.36 nM in the test with huIL-18Rβ-HisAvi [2], 1.5 nM in the test with cyIL-18Rβ-HisAvi [3] and 0.72 nM with huIL-18Rβ-HisAvi [4]. The koff with cyIL-18Rβ-HisAvi [1] is 0.00042 s⁻¹; in the test with huIL-18Rβ-HisAvi [2], 0.00014 s⁻¹; with cyIL-18Rβ-HisAvi [3], 0.0003 s⁻¹; with huIL-18Rβ-HisAvi [4], 0.00019 s⁻¹. The on-rate (kon) worked out at 180000 M⁻¹ s⁻¹ with cyIL-18Rβ-HisAvi [1], 390000 M⁻¹ s⁻¹ in the test with huIL-18Rβ-HisAvi [2], 200000 M⁻¹ s⁻¹ with cyIL-18Rβ-HisAvi [3] and 270000 M⁻¹ s⁻¹ with huIL-18Rβ-HisAvi [4]. In the test with human IL-18Rβ on cells, the “Average IC50” value came to 1.52 nM.
